Results: article PMC8315802 (2021)

Molecular target: F-actin (skeletal muscle actin) (Oryctolagus cuniculus, UniProt P68135)
Assay: actin co-sedimentation

B1: Rng2 (curly) 1-189 (protein)
chain: MDVNVGLSRLQSQAGAPVGTKGSNTRLAAKQRETLQAYDYLCRVDEAKKWIEECLGTDLGPTSTFEQSLRNGVVLALLVQKFQPDKLIKIFYSNELQFRHSDNINKFLDFIHGIGLPEIFHFELTDIYEGKNLPKVIYCIHALSYFLSMQDLAPPLIKSDENLSFTDEDVSIIVRRLRQSNVILPNFKA
Kd: 1000 nM
